Experimental data as given in publication PMC6198961, “The dimeric structure of wild-type human glycosyltransferase B4GalT1” (PLoS ONE, 2018).

Target: the molecule itself
Assay: SEC; gel filtration on a 24 ml Superdex 200 HR 10/30 column calibrated with γ-globulin (158 kDa), ovalbumin (44 kDa) and myoglobin (17 kDa); monomer and dimer

B1: catalytic domain of human B4GalT1 (Asp99-Ser398), wild type (domain or fragment, UniProt P15291 99-398, looked up)
chain: DSSPVVDSGPGPASNLTSVPVPHTTALSLPACPEESPLLVGPMLIEFNMPVDLELVAKQNPNVKMGGRYAPRDCVSPHKVAIIIPFRNRQEHLKYWLYYLHPVLQRQQLDYGIYVINQAGDTIFNRAKLLNVGFQEALKDYDYTCFVFSDVDLIPMNDHNAYRCFSQPRHISVAMDKFGFSLPYVQYFGGVSALSKQQFLTINGFPNNYWGWGGEDDDIFNRLVFRGMSISRPNAVVGRCRMIRHSRDKKNEPNPQRFDRIAHTKETMLSDGLNSLTYQVLDVQRYPLYTQITVDIGTPS
notes: EC 2.4.1.38), human, residues Asp99-Ser398: a piece of the stem domain (Asp99-Leu125) and the catalytic domain (Ser126-Ser398); the construct's calculated molecular weight is printed as 36.35 kDa; The tag is surmised from the nickel purification; In equilibrium between monomer and dimer; also called Beta-1,4-galactosyltransferase 1; recombinant B4GalT1; source: E. coli BL21(DE3) with the CyDisCo …
For B1, the “stoichiometry N” value was 2.
